Article PMC13225219

Target: GST-Drak (435-532) (Drosophila melanogaster) (UniProt Q0KHT7)
Assay: pull-down; GST-Drak on glutathione agarose; 100 µl of 0.2-10 µM Filamin fragment, 20 min on ice in 20 mM Tris-HCl pH 7.5, 100 mM NaCl, 1 mM DTT; washed with PBS; stain-free SDS-PAGE, Filamin to Drak band ratio

Chain of UniProt Q0KHT7 (Q0KHT7 435-532): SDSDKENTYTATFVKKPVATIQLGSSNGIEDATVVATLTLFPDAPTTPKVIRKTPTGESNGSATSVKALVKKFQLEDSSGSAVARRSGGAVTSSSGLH

Filamin-open (five-domain Drosophila Filamin fragment Cher15-19openMSR) (domain or fragment)
fold bound against the wild-type Filamin fragment: 10 fold
